Laboratory results reported in patent US20220265769A1 (GEISINGER HEALTH, published 2022).

Tests used:
[1] = target: T1, TBX3 (human, UniProt O15119 1-743, limits assumed); test: IP and immunoblot, primary human fibroblasts
T1 sequence (looked up): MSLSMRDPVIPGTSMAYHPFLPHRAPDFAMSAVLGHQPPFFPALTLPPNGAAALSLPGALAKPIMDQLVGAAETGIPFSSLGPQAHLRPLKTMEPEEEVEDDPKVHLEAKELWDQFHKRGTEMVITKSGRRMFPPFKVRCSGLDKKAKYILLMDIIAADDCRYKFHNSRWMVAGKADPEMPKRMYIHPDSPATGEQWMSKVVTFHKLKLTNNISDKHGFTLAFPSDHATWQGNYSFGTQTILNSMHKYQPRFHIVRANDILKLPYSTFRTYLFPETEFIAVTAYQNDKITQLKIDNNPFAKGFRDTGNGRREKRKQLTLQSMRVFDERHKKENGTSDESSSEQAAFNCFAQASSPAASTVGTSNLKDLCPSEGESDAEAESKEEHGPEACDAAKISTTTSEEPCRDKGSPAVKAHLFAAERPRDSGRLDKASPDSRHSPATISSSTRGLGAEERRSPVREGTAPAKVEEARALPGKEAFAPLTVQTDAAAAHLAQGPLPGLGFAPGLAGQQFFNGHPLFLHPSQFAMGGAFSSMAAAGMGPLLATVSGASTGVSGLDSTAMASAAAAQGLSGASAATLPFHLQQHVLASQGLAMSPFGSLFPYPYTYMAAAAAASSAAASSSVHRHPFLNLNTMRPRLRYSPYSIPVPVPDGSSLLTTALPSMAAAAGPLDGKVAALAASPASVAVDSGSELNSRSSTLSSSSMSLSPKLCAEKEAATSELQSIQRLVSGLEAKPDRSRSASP

[2] = target: T2, estrogen receptor (ERα) (human, UniProt P03372 1-595); test: IP and immunoblot, T47D, MDA-MB231 and PME cells (FIG. 14F)
T2 construct: also called ESR1
T2 sequence (looked up): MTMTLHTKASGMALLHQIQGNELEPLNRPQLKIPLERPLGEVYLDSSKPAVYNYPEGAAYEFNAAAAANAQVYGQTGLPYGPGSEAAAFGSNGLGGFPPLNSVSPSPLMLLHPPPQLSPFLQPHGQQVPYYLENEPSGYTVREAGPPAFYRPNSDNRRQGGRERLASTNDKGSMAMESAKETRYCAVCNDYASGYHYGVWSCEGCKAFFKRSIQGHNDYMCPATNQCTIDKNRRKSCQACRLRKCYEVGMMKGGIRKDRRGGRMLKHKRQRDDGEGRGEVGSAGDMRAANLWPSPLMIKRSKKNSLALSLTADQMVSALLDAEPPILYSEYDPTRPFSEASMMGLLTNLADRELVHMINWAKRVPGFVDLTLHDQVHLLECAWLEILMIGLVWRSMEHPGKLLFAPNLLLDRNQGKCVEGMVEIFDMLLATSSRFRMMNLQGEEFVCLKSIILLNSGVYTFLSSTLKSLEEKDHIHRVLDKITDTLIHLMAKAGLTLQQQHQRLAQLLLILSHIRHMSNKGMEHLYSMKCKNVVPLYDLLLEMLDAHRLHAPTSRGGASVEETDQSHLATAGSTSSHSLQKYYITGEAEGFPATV

[3] = target: HCF-1 (human, UniProt P51610 2-2035, limits assumed); test: as above
Sequence of HCF-1 (P51610 2-2035 limits assumed): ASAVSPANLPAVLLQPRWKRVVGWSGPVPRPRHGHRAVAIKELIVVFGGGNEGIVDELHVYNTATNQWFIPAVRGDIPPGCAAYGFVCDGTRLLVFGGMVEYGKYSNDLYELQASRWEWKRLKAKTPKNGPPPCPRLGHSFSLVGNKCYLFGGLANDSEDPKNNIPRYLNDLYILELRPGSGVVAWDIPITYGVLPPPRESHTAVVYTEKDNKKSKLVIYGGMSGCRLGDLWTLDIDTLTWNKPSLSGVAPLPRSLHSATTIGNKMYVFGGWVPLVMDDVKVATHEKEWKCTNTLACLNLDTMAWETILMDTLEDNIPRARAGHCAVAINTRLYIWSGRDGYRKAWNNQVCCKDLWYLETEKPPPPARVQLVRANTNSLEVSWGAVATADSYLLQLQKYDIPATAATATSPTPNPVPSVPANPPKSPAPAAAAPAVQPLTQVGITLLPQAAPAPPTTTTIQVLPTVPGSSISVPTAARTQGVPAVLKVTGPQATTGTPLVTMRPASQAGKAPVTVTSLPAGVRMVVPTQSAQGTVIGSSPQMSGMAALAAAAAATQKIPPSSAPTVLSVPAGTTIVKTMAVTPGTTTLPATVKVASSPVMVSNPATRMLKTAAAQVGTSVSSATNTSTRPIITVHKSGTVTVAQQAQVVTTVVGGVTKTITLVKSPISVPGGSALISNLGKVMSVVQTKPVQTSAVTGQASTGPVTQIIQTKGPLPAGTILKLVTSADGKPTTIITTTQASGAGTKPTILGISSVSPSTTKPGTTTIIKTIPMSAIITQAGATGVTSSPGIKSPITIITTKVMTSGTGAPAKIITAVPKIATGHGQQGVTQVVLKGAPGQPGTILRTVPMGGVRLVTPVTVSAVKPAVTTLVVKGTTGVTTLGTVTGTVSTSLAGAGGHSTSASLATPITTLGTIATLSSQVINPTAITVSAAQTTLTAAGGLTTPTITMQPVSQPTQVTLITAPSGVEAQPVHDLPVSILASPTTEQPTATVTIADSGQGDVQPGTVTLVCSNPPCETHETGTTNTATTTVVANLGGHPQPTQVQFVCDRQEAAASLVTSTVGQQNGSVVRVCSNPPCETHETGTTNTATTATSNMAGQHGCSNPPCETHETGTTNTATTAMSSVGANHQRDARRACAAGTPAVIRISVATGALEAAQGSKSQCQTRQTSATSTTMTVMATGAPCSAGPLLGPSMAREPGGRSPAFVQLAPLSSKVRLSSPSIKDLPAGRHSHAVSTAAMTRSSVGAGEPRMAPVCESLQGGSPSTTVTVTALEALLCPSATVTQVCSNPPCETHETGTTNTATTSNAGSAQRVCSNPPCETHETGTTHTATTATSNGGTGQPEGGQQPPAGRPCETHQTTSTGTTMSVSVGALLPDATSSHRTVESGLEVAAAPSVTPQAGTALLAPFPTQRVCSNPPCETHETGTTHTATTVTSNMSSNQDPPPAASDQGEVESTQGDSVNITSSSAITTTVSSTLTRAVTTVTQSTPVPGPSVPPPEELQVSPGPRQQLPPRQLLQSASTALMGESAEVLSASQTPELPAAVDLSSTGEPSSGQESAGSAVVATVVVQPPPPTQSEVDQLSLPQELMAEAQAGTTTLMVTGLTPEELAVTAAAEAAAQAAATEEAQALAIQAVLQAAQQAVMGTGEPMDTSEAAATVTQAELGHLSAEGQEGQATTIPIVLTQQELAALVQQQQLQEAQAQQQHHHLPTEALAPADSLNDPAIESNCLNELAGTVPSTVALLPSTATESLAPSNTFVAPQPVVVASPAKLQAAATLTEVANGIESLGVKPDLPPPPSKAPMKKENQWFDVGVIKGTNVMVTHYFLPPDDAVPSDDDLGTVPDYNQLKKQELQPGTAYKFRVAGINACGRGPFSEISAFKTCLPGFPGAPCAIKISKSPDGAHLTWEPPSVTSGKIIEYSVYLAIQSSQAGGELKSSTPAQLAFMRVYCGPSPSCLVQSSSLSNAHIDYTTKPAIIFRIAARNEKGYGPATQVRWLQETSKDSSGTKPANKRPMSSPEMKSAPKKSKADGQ

[4] = target: EZH2 (human, UniProt Q15910 1-746, limits assumed); test: IP and immunoblot, T47D cells and primary human fibroblasts
Sequence of EZH2 (Q15910 whole entry): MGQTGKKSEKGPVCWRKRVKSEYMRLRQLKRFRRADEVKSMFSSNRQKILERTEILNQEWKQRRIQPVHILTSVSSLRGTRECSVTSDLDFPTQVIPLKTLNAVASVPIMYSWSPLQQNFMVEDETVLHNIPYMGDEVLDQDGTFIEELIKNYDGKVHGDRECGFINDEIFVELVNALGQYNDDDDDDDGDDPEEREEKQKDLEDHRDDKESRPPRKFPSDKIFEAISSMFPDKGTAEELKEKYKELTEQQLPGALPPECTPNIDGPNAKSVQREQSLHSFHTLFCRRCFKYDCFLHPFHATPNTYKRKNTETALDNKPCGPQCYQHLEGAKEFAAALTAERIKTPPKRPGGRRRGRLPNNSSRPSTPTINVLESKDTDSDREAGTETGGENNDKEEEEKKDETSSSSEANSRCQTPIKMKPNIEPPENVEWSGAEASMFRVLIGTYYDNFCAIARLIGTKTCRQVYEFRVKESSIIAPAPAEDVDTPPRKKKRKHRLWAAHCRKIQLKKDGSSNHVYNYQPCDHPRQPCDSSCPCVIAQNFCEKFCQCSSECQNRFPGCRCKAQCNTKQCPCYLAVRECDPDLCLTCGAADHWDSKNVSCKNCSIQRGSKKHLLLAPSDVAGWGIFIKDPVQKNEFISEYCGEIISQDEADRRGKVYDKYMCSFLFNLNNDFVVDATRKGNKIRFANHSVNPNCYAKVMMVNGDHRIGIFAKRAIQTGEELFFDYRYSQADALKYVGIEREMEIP

B1: CAPERα (Coactivator of AP1 and Estrogen Receptor) (other, human, UniProt Q14498 2-530, looked up)
chain: ADDIDIEAMLEAPYKKDENKLSSANGHEERSKKRKKSKSRSRSHERKRSKSKERKRSRDRERKKSKSRERKRSRSKERRRSRSRSRDRRFRGRYRSPYSGPKFNSAIRGKIGLPHSIKLSRRRSRSKSPFRKDKSPVREPIDNLTPEERDARTVFCMQLAARIRPRDLEEFFSTVGKVRDVRMISDRNSRRSKGIAYVEFVDVSSVPLAIGLTGQRVLGVPIIVQASQAEKNRAAAMANNLQKGSAGPMRLYVGSLHFNITEDMLRGIFEPFGRIESIQLMMDSETGRSKGYGFITFSDSECAKKALEQLNGFELAGRPMKVGHVTERTDASSASSFLDSDELERTGIDLGTTGRLQLMARLAEGTGLQIPPAAQQALQMSGSLAFGAVAEFSFVIDLQTRLSQQTEASALAAAASVQPLATQCFQLSNMFNPQTEEEVGWDTEIKDDVIEECNKHGGVIHIYVDKNSAQGNVYVKCPSIAAAIAAVNALHGRWFAGKMITAAYVPLPTYHNLFPDSMTATQLLVPSRR
notes: Endogenous protein immunoprecipitated or blotted from Dignam lysates; also called RBM39
B1: binds [1]; no binding [2]; no binding [3]. B1: binds [4].
